2 molecules from PMC2788937 (Science signaling, 2009) can be followed below.

In assay [1] the target is GST-β2AR(330–413) (human, UniProt P07550 330-413). The experiment in a line: pull-down.
For assay [2], the target named is FLAG-tagged human β2-adrenergic receptor (human, UniProt P07550 1-413). In words: pull-down.

No end group written: not given here.

B1: FITC-labeled peptide derived from human EGLN3(89–104) (peptide)
peptide: EAISFLLSLIDRLVLY
modifications: also: FITC label, position not given here
Turning to B1, the binding result in assay [1] is listed as “binds”.

B2: GST-EGLN3^(73-116) (domain or fragment, human, UniProt Q9H6Z9 73-116, looked up)
chain: LRGDQITWIGGNEEGCEAISFLLSLIDRLVLYCGSRLGKYYVKE
Consider B2, for which, in assay [2], the binding result is on record as “binds”.
